Laboratory results: the emibetuzumab library of Makowski et al. (2022)

B1: VH:VL chains; a variant is named by its letters at X, in order (parent)
chain 1: QVQLVQSGAEVKKPGASVKVSCKASGYTFTDYXMHWVRQAPGQGLEWMGXVNPNXXXTTYNQKFEGRVTMTTDTSTSTAYMELRSLRSDDTAVYYCARXNXLDXWGQGTTVTVSS
chain 2: DIQMTQSPSSLSASVGDRVTITCSVSSSVSSIYLHWYQQKPGKAPKLLIYSTSNLASGVPSRFSGSGSGTDFTLTISSLQPEDFATYYCQVYSGYPLTFGGGTKVEIK

Variants of: B1
Experiment: yeast display scFab, FACS + sequencing
Summary of the method: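 Non-specific binding was called from deep sequencing of sorted yeast cells displaying a heavy-chain CDR mutant scFab library. Cells labelled with anti-Myc and biotinylated ovalbumin (260 μg/mL in PBSB, 3 h, room temperature) or soluble membrane proteins (130 μg/mL, 20 min on ice) were FACS-sorted, collecting the top 25% and bottom 10% of binders from two replicates. A sequence was positive when present in ≥3 of 4 pooled positive samples and absent from all negatives, and negative under the converse rule.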

Variant | non-specific binding call
DAAKNDAV | no binding
DAGGADVY | no binding
DAGGADVA | no binding
VAEGDAAD | no binding
FAGGGDGA | no binding
DAGAADGA | no binding
FAAGGAWA | binds
YAAKNDGA | no binding
YAARAAVD | binds
DAARGDVV | no binding
SAGGGAGD | no binding
DAGGGDAV | no binding
YAARAALD | binds
SAERSAAF | no binding
SAGGGAWV | no binding
YAEESAGD | no binding
VAGGDAAA | no binding
SAAGADWS | no binding
VAGAGAGA | no binding
DAEESDGA | no binding
VAGGDDAV | no binding
SAEATDLY | no binding
YAAGGDGV | no binding
DAEEDAGY | no binding
DAGGADWA | no binding

Variant | non-specific binding call
VAGGDDVF | no binding
VAGGDDVA | no binding
AAGGDYVF | no binding
SAARDFWV | no binding
DAGAADVV | no binding
SAEKDDGS | no binding
YAGGAYLY | no binding
SAAGGAAD chain 1 L45S | no binding
SAGEGSLV | no binding
YAARGAAV | binds
YAAGSSWD | binds
YAEESDGS | no binding
SAEEDDVY | no binding
VAEEDAGY | no binding
FAEGDDVY | no binding
FAEGDDVV | no binding
FAEGDDVA | no binding
VAARGAAV | no binding
VAEKGAGD | no binding
VAGGDYLV | no binding
YAGAGSAD | no binding
FAARDSGA | no binding
YAEGDAAD | no binding
YAEESSSA | no binding
FAEGDDSA | no binding

Variant | non-specific binding call
FAATDSVS | binds
VAARGFGS | no binding
SAAGGDVA chain 1 L45S | no binding
DAGEASAV | no binding
FAEGAAAV | no binding
DAERTDGV | no binding
YAATADSS | no binding
VAEKGDLS | no binding
DAATAYGS | binds
VAGAGDSV | no binding
VAATADVA | no binding
VAATADSS | no binding
VAEAAVGD | binds
YAGAAAVD | binds
VAGAGYGA | binds
VAATGVSD | binds
FAGGGAGA | no binding
FAGGGAGS | no binding
VAGGDAGV | no binding
FAGGGASD | no binding
VAEKGDVF | no binding
DAARGAGD | no binding
DAGGASLD | no binding
YAGEGDGA | no binding
VAEKGDAA | no binding

Variant | non-specific binding call
SAGEGDGV | no binding
FAEGSYAF | binds
YAGGDSGV | no binding
DAGEGFVA | no binding
DAAGADWY | no binding
FAAGSSGS | binds
DAGGGAVY | no binding
DAGGGAVA | no binding
DAGGGAVV | no binding
DAGGADGV | no binding
AAEGDAAD | no binding
DAGGGAGD | no binding
DAGGDDGA | no binding
DAGGAAGD | no binding
DAGGAAGV | no binding
VAEKGALA | no binding
VAATADAV | no binding
AAAGGSWS | binds
DAARGSSV | no binding
DAGEAAGD | no binding
YAGGDFAY | no binding
YAEESDWV | no binding
DAGGASSV | no binding
DAGGASSA | no binding
DAGGASSS | no binding

Variant | non-specific binding call
YAGGDDGA | no binding
SAEGDAAD | no binding
YAEATDLY | no binding
FAAETDVF | no binding
YAAKSDGY | binds
YAARGAWD | binds
SAAGGAAV chain 1 L45S | no binding
DAEGDAGD | no binding
VAETAAAA | no binding
DAEATSWV | no binding
FAGGGDAV | no binding
FAAGGAAS | binds
AAEGGYAV | binds
YAAGSDVY | no binding
YAEGGYGV chain 1 V68I | binds
SAGEGDVY | no binding
SAGEGDVF | no binding
YAGEGFGV | no binding
DAGGDDVY | no binding
SAEGGSSA | no binding
SAAGGAGA chain 1 L45S | no binding
YAGEASAV | no binding
VAGGDFGV | no binding
VAEKGFLV | binds
FAAAGFVA | binds

Variant | non-specific binding call
DAEATDVA | no binding
YAGETFGA | binds
DAEGDDGA | no binding
DAGGAAVS | no binding
DAGGAAVA | no binding
DAGGGAAV | no binding
VAARGDAA | no binding
SAARDAVA | no binding
VAGGGAGV | no binding
VAGGDAVA | no binding
VAGGDAVV | no binding
DAGGASGV | no binding
YAGGDDSA | no binding
YAARASGF | binds
DAARGDAA | no binding
DAARGDAV | no binding
YAAGGDVA | no binding
VAGGDDWV | no binding
YAAETDVF | no binding
DAAGASVD | no binding
DAEATSLV | no binding
YAARGSAA | binds
VAATASWV | no binding
VAEKGFGA | no binding
DAARGDGV | no binding

Variant | non-specific binding call
DAARGDGA | no binding
SAAGGDGV chain 1 L45S | no binding
DAARAVSS | binds
VAAAGAAV | no binding
YAEESSGV | no binding
FAAGGSGD | binds
YAAGSFGY | binds
DAGAADAV | no binding
DAARGDSA | no binding
VAAKNDGA | no binding
FAEGASSS | no binding
DAEKGAWA | no binding
VAGGGAAV | no binding
DAGAAAGD | no binding
VAERSFGV | binds
YAEGASSF | no binding
VAGGDALD | no binding
VAATAAGA | no binding
VAEKGSGA | no binding
VAGAGDVV | no binding
AAEKDDLA | no binding
YAAAAFGY | binds
YAEESDVA | no binding
VAGGDDGA | no binding
VAGGDDGF | no binding

Variant | non-specific binding call
YAAKTAAA | binds
DAARGAAA | no binding
DAEATDGA | no binding
VAGGAYLY | no binding
DAGGADAY | no binding
DAGGADAV | no binding
VAEKGDGA | no binding
VAEKGDGV | no binding
YAAGGFAY | binds
VAEKGSSA | no binding
DAEKDSGA | no binding
YAGAGAVY | no binding
YAEEGVGY | binds
FAEGAAGD | no binding
YAGGDDAV | no binding
YAGGDDAA | no binding
SAAGGASD chain 1 L45S | no binding
SAGEGDWV | no binding
FAGEGAGV | no binding
DAATADSS | no binding
FAAGSYAV | binds
FAGGDYGS | binds
AAARNFLF chain 1 V68I | binds
FAAKTAAA | binds
VAEGGYAV | binds

Variant | non-specific binding call
DAGEAFSF | no binding
YAEKDAGD | no binding
DAAGAAGV | no binding
VAEATDLY | no binding
VAEKDDGS | no binding
FAARSYGD | binds
VAEKGDWY | no binding
SAAGSVWY | no binding
DAERDSGV | no binding
DAGGAAAA | no binding
DAGGAAAD | no binding
DAGGAAAV | no binding
YAGGGDGA | no binding
YAEKDFGV | no binding
VAAKSAAA chain 1 R38K | no binding
DAEGGSLD | no binding
YAAGASVD | no binding
SAGGDYVF | no binding
DAETAAAA | no binding
YAEESSAD | no binding
FAARAFGV | binds
DAGGDAGD | no binding
